The source of these data is patent US20190353654A1 (published 2019).

Assay [1] deals with human insulin (human, UniProt P01308 25-54; P01308 90-110). The experiment in a line: MicroScale Thermophoresis, 5 nM labeled receptor, insulin titrated. On the technique in general: Microscale thermophoresis detects binding through changes in fluorescence in a small temperature gradient.
In assay [2] the target is T1, HIV-1 coat protein gp41-120 (HIV-1).
T1 construct: also called HIV coat proteins gp41-120; HIV surface protein gp41-120
Nature of the assay: MicroScale Thermophoresis, labeled receptor, ligand titrated, in 50% human serum.

Assay [3] concerns the target T1, HIV-1 coat protein gp41-120. The experiment in a line: MicroScale Thermophoresis, labeled receptor, ligand titrated, in buffer (1x PBS, 5 mM DTT).
For assay [4] the target is unchanged. Nature of the assay: MicroScale Thermophoresis, labeled receptor, ligand titrated, in 50% human serum. This is another data set of the same source.
Assay [5] concerns the target T2, CXCL11 (UniProt O14625 22-94).
T2 sequence (looked up): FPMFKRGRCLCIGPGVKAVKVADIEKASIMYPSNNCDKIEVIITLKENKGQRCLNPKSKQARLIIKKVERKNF
The assay is described as above.

Assay [6] addresses T2, CXCL11. Nature of the assay: MicroScale Thermophoresis, labeled receptor, ligand titrated, in buffer (1x PBS, 5 mM DTT).
Assay [7] deals with T3, CCL27 (UniProt Q9Y4X3 25-112, limits assumed).
T3 sequence (looked up): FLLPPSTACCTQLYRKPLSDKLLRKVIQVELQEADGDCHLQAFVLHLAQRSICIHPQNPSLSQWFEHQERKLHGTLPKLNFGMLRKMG
Nature of the assay: MicroScale Thermophoresis, labeled receptor, ligand titrated, in 50% human serum.

Assay [8] has as its target T4, CCL28 (UniProt Q9NRJ3 20-127).
T4 construct: range 20-127; also called CCL2820-127
T4 sequence (looked up): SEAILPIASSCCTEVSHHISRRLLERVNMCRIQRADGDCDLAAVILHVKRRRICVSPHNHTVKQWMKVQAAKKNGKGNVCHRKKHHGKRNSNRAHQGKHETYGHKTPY
The description is as above.

In assay [9] the target is T3, CCL27. Nature of the assay: MicroScale Thermophoresis, labeled receptor, ligand titrated, in buffer (1x PBS, 5 mM DTT).
The target in assay [10] is T4, CCL28. The description is as above.

B1: CCR5^QTY (receptor, not shown: small tags and cut ends)
chain: MDYQVSSPIYDINYYTSEPCQKINVKQIAARQQPPQYSQTFTYGFTGNMQTTQTQINCKRLKSMTDIYLQNQAISDQYYQQTTPYWAHYAAAQWDFGNTMCQQQTGQYFTGYYSGTYYTTQQTTDRYLAVVHAVFALKARTTTYGTTTSTTTWTTATYASQPGTTYTRSQKEGLHYTCSSHFPYSQYQFWKNFQTLKITIQGQVQPQQTMVTCYSGTQKTLLRCRNEKKRHRAVRQTFTTMTTYYQYWAPYNTTQQLNTFQEFFGLNNCSSSNRLDQAMQVTETQGMTHCCTNPTIYAYVGEKFRNYLLVFFQKHIAKRFCKCCSIFQQEAPERASSVYTRSTGEQEISVGL
modifications: Receptor labelled with NT647 dye (RED-NHS, on amines) for MST; sites not specified
notes: Expressed in SF9 insect cells and purified without detergent; also called detergent-free CCR5 variant
Consider B1, for which, in assay [1], the binding result was “no binding (tested: 0.153 nM-5,000 nM insulin)”. In addition, the Kd in [2] is 4.3 nM; in assay [3] it was 3.1 nM.

B2: CXCR7^QTY (receptor)
chain: MDLHLFDYSEPGNFSDISWPCNSSDCIVVDTVMCPNMPNKSTQQYTQSYTYTYTYTTGMTANSVVVWVNIQAKTTGYDTHCYTQNQATADQWTTQTTPTWTTSLVQHNQWPMGELTCKTTHQTYSTNQYGSTYYQTCMSVDRYLSITYFTNTPSSRKKMVRRTTCTQTWQQAYCTSQPDTYYQKTVTSASNNETYCRSFYPEHSIKEWLIGMEQTSTTQGYATPYSTTATYYYQLARAISASSDQEKHSSRKTTYSYTTTYQTCWQPYHTATQLDIFSILHYIPFTCRLEHALFTAQHTTQCQSQTHCCTNPTQYSYTNRNYRYELMKAFIFKYSAKTGLTKLIDASRVSETEYSALEQSTK
modifications: The receptor was labelled with NT647 (RED-NHS dye on lysines, positions not defined) for MST. The letters do not carry this.
notes: Expressed in SF9 insect cells and purified without detergent; not shown: C-terminal His tag
Regarding B2, the binding result in assay [1] is listed as “no binding (tested: 0.153 nM-5,000 nM insulin)”. Moreover, the dissociation constant (Kd) in assay [4] came to 7 nM; in assay [5], 28 nM; in [6] it was 16 nM; in assay [3] it was 1.2 nM.

B3: CCR10^QTY (receptor, not shown: small tags and cut ends)
chain: MGTEATEQVSWGHYSGDEEDAYSAEPLPELCYKADVQAFSRAFQPSVSLTVAAQGQAGNGQTQATHQAARRAARSPTSAHQQQQAQADQQQAQTQPYAAAGALQGWSLGSATCRTTSGQYSASYHAGYQYQACTSADRYVAIARALPAGPRPSTPGRAHQTSTTTWQQSQQQAQPAQQYSQDGQREGQRRCRLIFPEGLTQTVKGASATAQTAQGYAQPQGTMTACYALLGRTLLAARGPERRRALRTTTAQTAAYTTQQQPYSQAQQQDTADLLAARERSCPASKRKDVAQQTTSGQAQARCGQNPTQYAYQGLRFRQDLRRLLRGGSCPSGPQPRRGCPRRPRLSSCSAPTETHSLSWDN
modifications: Receptor labelled with NT647 dye (RED-NHS, on amines) for MST; sites not specified
notes: Expressed in SF9 insect cells and purified without detergent
With B3, in assay [1], the binding result is given as “no binding (tested: 0.153 nM-5,000 nM insulin)”. In addition, the Kd came to 5.6 nM in assay [7], 21 nM in assay [8], 3.1 nM in assay [9] and 9.3 nM in assay [10].

B4: CXCR4^QTY (receptor, not shown: small tags and cut ends)
chain: MEGISIYTSDNYTEEMGSGDYDSMKEPCFREENANFNKTYQPTTYSTTYQTGTTGQGQTTQTMGYQKKQRSMTDKYRQHQSTADQQYTTTQPYWATDATANWYFGNFQCKATHTTYTTQQYSSTQTQAYTSQDRYLAIVHATNSQRPRKQQAEKTTYTGTWTPAQQQTTPDYTYANVSEADDRYICDRFYPNDLWTTTYQYQHTMTGQTQPGTTTQSCYCTTTSKLSHSKGHQKRKALKTTTTQTQAYYACWQPYYTGTSTDSFILLEIIKQGCEFENTVHKWTSTTEAQAYYHCCQQPTQYAYQGAKYKTSAQHAQTSTSRGSSQKTQSKGKRGGHSSTSTESESSSFHSS
modifications: Receptor labelled with NT647 dye (RED-NHS, on amines) for MST; sites not specified
For the molecule B4, in assay [1], the binding result is reported as “no binding (tested: 0.153 nM-5,000 nM insulin)”. The Kd in assay [4] was 185 nM; in assay [3], 117 nM.

Broadly, the Kd is the free concentration of one partner at which half of the binding sites on the other are occupied at equilibrium, for simple one-to-one binding. Higher therefore signals weaker binding.
